Measured values: patent US20230349919A1 (Regeneron, published 2023)
Numbering of substitutions follows the chain as printed.

Legend:
[1] = target: T1, Der p 2 (house dust mite, UniProt P49278 18-146); experiment: centered log-ratio of barcode count
T1 construct: Also used oligonucleotide-barcoded for cell staining
T1 sequence (looked up): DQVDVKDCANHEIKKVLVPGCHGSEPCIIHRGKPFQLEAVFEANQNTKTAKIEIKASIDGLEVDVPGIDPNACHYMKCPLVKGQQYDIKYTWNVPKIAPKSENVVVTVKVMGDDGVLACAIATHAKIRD
Excerpt: (§1) The barcoded antigen library was mapped by the CellRanger software to a custom short-read reference that contained the DNA tag sequences of the four barcoded antigens, namely, Der p 1, Der p 2, Der f 1 and Ole e 1. These tag sequences were quantified across all cells and were normalized by taking the centered log-ratio (CLR) per barcoded antigen across each sample capture. In addition, background antigen signal for each barcoded antigen was removed by DSB (Denoised and Scaled by Background). Both the CLR and the DSB normalized values were used to quantify the target antigen signals, namely, those for Der p 1, Der p 2 and Der f 1, against the control signal, namely, that for Ole e 1.

[2] = target: T2, Der f 1 (house dust mite, UniProt P16311 99-321); experiment: centered log-ratio of barcode count
T2 construct: Also used oligonucleotide-barcoded for cell staining
T2 sequence (looked up): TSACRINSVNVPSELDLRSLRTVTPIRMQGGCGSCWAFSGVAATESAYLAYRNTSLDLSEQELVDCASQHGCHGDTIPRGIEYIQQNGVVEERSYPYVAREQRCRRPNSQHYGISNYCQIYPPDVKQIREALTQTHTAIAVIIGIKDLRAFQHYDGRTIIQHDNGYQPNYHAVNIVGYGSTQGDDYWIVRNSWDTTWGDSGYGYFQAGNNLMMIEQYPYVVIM
Excerpt: as §1

[3] = target: T3, Ole e 1 (olive, UniProt P19963 1-145); experiment: centered log-ratio of barcode count
T3 construct: Also used oligonucleotide-barcoded for cell staining; also called olive allergen; negative control allergen
T3 sequence (looked up): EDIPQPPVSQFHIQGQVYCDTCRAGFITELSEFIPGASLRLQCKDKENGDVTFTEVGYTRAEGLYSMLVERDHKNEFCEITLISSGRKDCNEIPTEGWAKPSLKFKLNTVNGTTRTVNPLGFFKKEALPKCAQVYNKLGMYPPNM
Excerpt: as §1

[4] = target: T1, Der p 2; experiment: barcoded-antigen count on source cell
[5] = target: T2, Der f 1; experiment: barcoded-antigen count on source cell
[6] = target: T3, Ole e 1; experiment: barcoded-antigen count on source cell
[7] = target: T1, Der p 2; experiment: barcode rank score against control Ole e 1
[8] = target: T2, Der f 1; experiment: barcode rank score against control Ole e 1
[9] = target: T1, Der p 2; experiment: barcoded antigen sequencing of single IgE PCs with trapped IgE
[10] = target: T1, Der p 2; experiment: barcoded antigen sequencing of single IgE PCs with trapped IgE [cont.]
Excerpt: as §1

[11] = target: T1, Der p 2; experiment: antigen specificity score against Ole e 1 from barcode counts of single IgE PCs [cont.]
Protocol: (§2) Antigen specificity score (AgSS) for IgG were calculated by subtracting the quantile of hIL-6Rα barcoded UMI counts multiplied by a penalty factor (x) from the quantile of hIL-4Rα barcoded UMI counts, AgSS=Q_hIL-4Rα-Q_hIL-6Rα^x. AgSS for IgE were calculated with a similar formula for mouse and human single cell data. For IgE scores the target antigens were either Der p1, Der p2 or Der f1 and the control was always Ole e1.
(§3) Following processing of the three single-cell libraries, the gene expression and V(D)J region sequencing data were used to subset PCs with a valid IgE constant region and detectable expression of IgE and CD79a but lacking the expression of Ms4a1 and CD19 typically found in non-PC B cells. IgE-expressing PCs were then assessed for differential expression against additional IgA, IgG, and IgM plasma cell isotypes to further characterize the unique transcriptional signature of IgE-secreting PCs. IgE-secreting PCs were then assessed for antigen specificity by comparing the normalized levels of the target antigens, namely, Der p 1, Der p 2, or Der f 1, against the normalized level of the control antigen Ole e 1. This was performed by calculating an empirical score for each target antigen and subtracting the […] with a penalty factor. The formula used to do is set forth below: […]

[12] = target: T4, Der p 1 (house dust mite, UniProt P08176 99-320); experiment: barcoded antigen sequencing of single IgE PCs with trapped IgE
T4 construct: Also used oligonucleotide-barcoded for cell staining; also called natural Der p 1
T4 sequence (looked up): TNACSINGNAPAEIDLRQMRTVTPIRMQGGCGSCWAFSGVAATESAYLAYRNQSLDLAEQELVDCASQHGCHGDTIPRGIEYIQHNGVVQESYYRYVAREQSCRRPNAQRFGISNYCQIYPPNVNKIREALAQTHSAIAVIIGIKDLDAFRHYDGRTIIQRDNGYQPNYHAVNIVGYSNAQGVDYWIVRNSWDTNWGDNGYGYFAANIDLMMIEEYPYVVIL

[13] = target: T2, Der f 1; experiment: as above
[14] = target: T4, Der p 1; experiment: barcoded antigen sequencing of single IgE PCs with trapped IgE [cont.]
Excerpt: as §1

[15] = target: T2, Der f 1; experiment: as above
Excerpt: as §1

[16] = target: T4, Der p 1; experiment: antigen specificity score against Ole e 1 from barcode counts of single IgE PCs [cont.]
Protocol: as §2, §3

[17] = target: T2, Der f 1; experiment: as above
Protocol: as §2, §3

[18] = target: T1, Der p 2; experiment: ELISA, coated Der p2
Protocol: After selecting allergen-specific antibodies, relative binding to Der p 1, Der p 2, and Der f 1 were quantified by ELISA. […] Specifically, binding microtiter plates were coated with 100 μl of 2 μg/mL of natural Der p 1, Der p 2, Der f 1, and Ole e 1 in PBS overnight at 4′C. IgE antibodies were prepared at a concentration of 1 μg/mL and serially diluted three-fold in PBS with 0.5% w/v BSA. After washing with 0.05% v/v Tween® 20 in PBS and blocking in PBS with 0.5% w/v BSA, 100 μl of the diluted IgE antibodies were transferred to the plates and incubated for one hour at ambient temperature. Subsequently, 100 μL of anti-mouse IgE antibody conjugated to horse-radish peroxidase (HRP) diluted at 1:5000 was added. The plates were then incubated for one hour at ambient temperature, and washed in 0.05% v/v/Tween® 20 in PBS. Subsequently, the HRP substrate 3,3′,5,5′-tetramethylbenzidine (TMB) was added. The reaction was stopped (with 100 μL of sulfuric acid 2.0 N) and optical density values determined using a plate reader at 450 nm.

[19] = target: T5, human IL-4 Receptor α (hIL-4Rα) ectodomain (Example 17) (human, UniProt P24394 26-232, AlexaFluor 647 label, or biotin bound to PE-labeled streptavidin tetramer); experiment: method not stated
T5 construct: extracellular domain; Used as AF647-labelled monomer (5 nM) and as biotinylated ectodomain on SA-PE tetramer; also called hIL-4Rα-AlexaFluor647 (monomeric); hIL-4Rα-biotin-StAv-PE (tetrameric)

[20] = target: T5, human IL-4 Receptor α (hIL-4Rα) …; experiment: Biacore at +25°C

B1: IgE mAb 1_2 (antibody, V domains shown)
VH: QIQLVQSGPELKKPGETVKISCKASGYTFTTYGMSWVKQAPGKGLKWMGWINTYSGVPTYADDFKGRFVFSLETSASTAYLQINNLKNEDTATYFCARAYYYGSSYLIWYFDVWGTGTTVTVSS
VL: NIVLTQSPASLAVSLGQRATISCRASESVDSYGNSFMHWYQQKPGQPPKLLIYLASNLESGVPARFSGSGSRTDFTLTIDPVEADDAATYYCQQNNEDPYTFGGGTKLEIK
notes: IgE (IGHE, IGKC) from HDM-exposed mouse, BoneMarrow
Derp2_ab_clr [1]: 1.65 | Derf1_ab_clr [2]: 1.32 | Olee1_ab_clr [3]: -1.12 | Derp2_ab_raw [4]: 60 counts | Derf1_ab_raw [5]: 37 counts | Olee1_ab_raw [6]: 0 counts | Derp2_ab_rank [7]: 1 | Derf1_ab_rank [8]: 0.982

B2: Candidate ID 16 (antibody, V domains shown)
VH: EVHLQQSGPDLVKPGASVMISCQASGYSFTAYYINWVKQSPEKSLEWIGEINPGSGGVIYNRKFEAKATLIVDKSSNTAFMLLTRLTSEDSAIYYCARKGFYQFDYWGQGTTLTVSS
VL: SVVMTQIPKFLVVSAGDRVTITCKASQSVNDGVFWYQQKTGQSPKLVIYHTSNRYTGVSDRFTGSGYGTEFTFTISAVQSEDLAIYFCQQDYTSPLTFGGGTRLEIK
notes: IgE PCs LN
Raw Antigen Barcode Count [9]: 6 | Normalized Barcode Count [10]: 0.58 | Antigen Score [11]: 0.336

B3: Candidate ID 13 (antibody, V domains shown)
VH: QAYLQQSGAELVRPGASVKMSCKASGYTFISYNMHWVKQTRRQGLEWIGAIYPGNGDTSYNQKFKGKATLTVDKSSSTAYMQLSSLTSEDSAVYFCARWDYYGSSYGAYWGQGTLVTVSA
VL: DIQMTQSPASLSVSVGETVTITCRASENIYSNLAWYQQKQGKSPQLLVYAATNLADGVPSRFSGSGSGTQYSLKINSLQSEDFGSYYCQHFWGTPWTFGGGTKLEIK
Raw Antigen Barcode Count [12]: 15 | Raw Antigen Barcode Count [9]: 11 | Raw Antigen Barcode Count [13]: 57 | Normalized Barcode Count [14]: 0.233 | Normalized Barcode Count [10]: 0.005 | Normalized Barcode Count [15]: 1.74 | Antigen Score [16]: 0.637 | Antigen Score [11]: 0.453 | Antigen Score [17]: 0.973

B4: Candidate ID 21 (antibody, V domains shown)
VH: QVQLQQSGPELVKPGASVKISCKAPGNAFSYSWMNWVKQRPGKGLEWVGRIYPGDGDTNYNGKFMGKATLTADKSSNTAYIQLSSLTSEDSAVYFCARSGGGTLYWYFDVWGTGTTVTVSS
VL: DIVMTQSPSSLALSVGQKVTMNCRSSQSLLNSFNQKNYLAWFQQKPGQSPRLLIYFASTRESGVPDRFIGSGSGTDFTLTISSVQAEDLADYFCQQHYNTPLTFGAGTTLELK
notes: IgE PCs LN
Raw Antigen Barcode Count [12]: 2 | Raw Antigen Barcode Count [9]: 215 | Raw Antigen Barcode Count [13]: 1 | Normalized Barcode Count [14]: -0.398 | Normalized Barcode Count [10]: 4.01 | Normalized Barcode Count [15]: -0.795 | Antigen Score [16]: -0.245 | Antigen Score [11]: 0.412 | Antigen Score [17]: -0.386

B5: IgE mAb 21_2 (antibody, V domains shown)
VH: B4 VH
VL: B4 VL
notes: IgE (IGHE, IGKC) from HDM-exposed mouse, LymphNode
EC50 (read off the curve) [18]: ~0.2 nM | Derp2_ab_clr [1]: 4.01 | Derf1_ab_clr [2]: -0.795 | Olee1_ab_clr [3]: 0.826 | Derp2_ab_raw [4]: 215 counts | Derf1_ab_raw [5]: 1 counts | Olee1_ab_raw [6]: 4 counts | Derp2_ab_rank [7]: 0.412 | Derf1_ab_rank [8]: -0.386

B6: ab_1 (antibody, V domains shown)
VH: EVQLVESGGGLEQPGGSLRLSCAGSGFTFSDYAMTWVRQAPGKGLEWVSSISGSGGNTYYADSVKGRFTISRDNSKNTLYLQMNSLRAEDTAVYYCAKDALTIAIRPYYYGLDVWGQGTTVTVSS
VL: DIVMTQSPLSLPVTPGEPASISCRSSQSLDYSYGYNYLDWYLQKSGQSPQLLIYLASNRASGVPDRFSGSGSGTDFTLKISRVEAEDVGFYYCMQSLSTPYTFGQGTKLEIK
Kd [19]: 1.68 nM | t1/2 pH7.4 [20]: > 116 min

B7: ab_2 (antibody, V domains shown)
VH: B6 VH with S30R, G56S, K98R, A100R, I103A, I105V
VL: B6 VL with Y33S, S98Q
Kd [19]: 3.26 nM | t1/2 pH7.4 [20]: 21.7 min

B8: ab_3 (antibody, V domains shown)
VH: B6 VH with S30R, A100R, T102S, I103K, A104T
VL: B6 VL with D30L, Y33T, A56G
Kd [19]: 14.2 nM | t1/2 pH7.4 [20]: 10.6 min
